One data set concerns the target T1, VP16 (Human herpesvirus 1, UniProt P06492).
T1 construct: Plasmid pETVP16 was used to express full-length VP16 under the control of the T7 RNA polymerase promoter; made in house; host or cells: E. coli BL21(DE3)
The data set is described as follows: ELISA of direct binding of VP16 to plate-coated peptides. On the set-up: species or system HSV-1. The following applies: wells coated with peptide up to 500 μg/ml; VP16 1.6 μg/ml; FIG. 10. As for the experimental part: FIG. 10 Binding of VP16 to peptides. Microtitre plates were coated with 5-fold dilutions of peptides ranging from 500 μg/ml to 1 μg/ml and blocked with PBS/10% NCS. VP16 was then added to a final concentration of 1.6 μg/ml and detected with LP1. The legend for the peptides added is shown to the right of the graph.
(§1) Dilutions of proteins in PBS were coated overnight onto flat bottomed micro-titre plates (Dynatech) at 37° C. and then blocked with either 2% BSA or 10% new-born calf serum (NCS) in PBS for 1 hour at 37° C. Specific binding of a second protein to the plate-bound protein was performed for 1.5-2 hours at ambient temperature. a Excess secondary protein was removed by washing four times with PBS, 0.3% Tween 20. Bound protein was detected by incubation for 1.5-2 hours with LP1 antibody in PBS, 1% gelatin or PBS, 2% NCS. The bound antibody was detected by incubation for 1 hour at ambient temperature with anti-mouse antibody conjugated to HRP (1:500) and visualised with Smg/ml enzyme substrate 2,2'-azino-bis(3-ethylbenzthiazoline-6-sulphonic acid) (ABTS; Sigma) in citrate-phosphate buffer containing 6 μl hydrogen peroxide in a total volume of 20 ml. Optical densities were measured on a Titertek Multiscan PLUS instrument.
To examine whether VP16 could bind directly to the peptides, wells were coated with each peptide (A-J) at a range of concentrations from […] to 500 μg/ml and the plate was then blocked with […]. […] Nonetheless, the data for peptides D and E implicate direct binding of these peptides to VP16 as the mechanism for inhibiting its interaction with VP22. Peptide H also was active in experiments which prevented gB binding to VP22trunc [Section 4 (iii)] and thus also forms an aspect of the invention.
For orientation: In an ELISA, binding on a coated surface is turned into a signal by an enzyme label.

A short description of data set [1]: Solubility of synthetic peptides in buffer. The data set is classed as physicochemical. The following applies: peptides dissolved in 20 mM Tris-HCl, pH 8.0, 250 mM NaCl; unpurified preparations. As for the experimental part: Synthesis and Purification of Oligopeptides. Peptides were synthesised by continuous flow Fmoc chemistry (Atherton and Sheppard, 1989; McLean et al., 1991) and, where stated in the text, were purified by preparative reverse-phase HPLC (Owsianka et al., 1993). The Mr values of peptides were determined by fast atom bombardment mass spectrometry (M-Scan) and corresponded to the predicted values. Peptides were dissolved in 20 mM Tris-HCl, pH 8.0, 250 mM NaCl and centrifuged at 11,500 g for 1 minute prior to use. […] Precipitates were removed by centrifugation before use.

Data set [2] addresses T2, VP16/VP22trunc interaction (Human herpesvirus 1, UniProt P06492).
T2 construct: Plasmid pETVP16 was used to express full-length VP16 under the control of the T7 RNA polymerase promoter; made in house; host or cells: E. coli BL21(DE3)
The data set can be described thus: ELISA of peptide inhibition of VP16 binding to VP22trunc. To be noted: D and E pure preparations, effect at 100 and 500 μg/ml; VP16 1.6 μg/ml; 160 ng VP22trunc; FIG. 9. Details: species or system HSV-1. As for the experimental part: FIG. 9 Inhibitory effect of peptides D and E on the VP22trunc-VP16 interaction in ELISAs. Microtitre plates were coated with 160 ng of VP22trunc and blocked with PBS/10% NCS. Before addition to the wells, five-fold dilutions of the peptides, ranging from 500 μg/ml to 1 g/ml, were incubated with VP16 (1.6 μg/ml). Bound VP16 was detected with LP1 at a dilution of 1:1000. The legend for the peptides added is shown to the right of the graph. Values are shown relative to those obtained in the absence of the peptide.
as §1
To adopt a more quantitative approach, an ELISA for VP16 binding to VP22trunc was developed. Optimal conditions were determined by coating wells with various quantities of VP22trunc followed by blocking with 2% BSA. Plates were then incubated with dilutions of VP16 and the bound VP16 detected with LP1.
The studies presented above have provided strong evidence in support of peptide inhibition of the interaction between VP16 and VP22. However, quantitative analysis of the ability of peptides to block any interaction is difficult to perform by the above methods. Therefore, using the ELISA system described in Results Section 2(iii) with the exception that PBS/10% NCS was utilised as a blocking agent, the inhibitory effects of peptides D and E were examined. This modification arose due to nonspecific binding of the peptides to wells when BSA was used for blocking (data not shown).

Data set [3] has as its target T2, VP16/VP22trunc interaction. The data set is described as follows: Far Western analysis of peptides blocking VP16 binding to immobilised VP22trunc. Details: species or system HSV-1. As for the experimental part:
FIG. 7 Far Western analysis of the ability of peptides to block the interaction between VP16 and immobilised VP22trunc. Purified VP22trunc was added to partially purified extract of VP16 and the sample run on a 12% polyacrylamide gel. Proteins were then transferred to nitrocellulose membrane and the blot was cut into strips, with each strip containing approximately 1 g of VP22trunc. In (A), strips were pre-incubated with 1 mg of each of the following peptides: lane 2, no peptide, lane 3, peptide C; lane 4, peptide D; lane 5, peptide E; lane 6, peptide F; lane 7, peptides D and E; lane 8, peptides C and F. In (B) strips were pre-incubated with 1 mg of each of the following peptides: lane 2, no peptide, lane 3, peptide C; lane 4, purified peptide D; lane 5, purified peptide E; lane 6, peptide F. 24 g of pure VP16 was then added to strips 2 to 8 in (A) and strips 2 to 6 in (B), followed by incubation with LP1 antibody (1:1000 dilution). As a control, portions of the blot were incubated with LP1 or the 9220 antibody at a dilution of 1:1000 (lane 1 for LP1 in A and B; lane 9 in A and lane 7 in B for 9220). The apparent molecular weights of VP16 (65 KDa) and the dimer (32 KDa) and monomer (16 KDa) forms of VP22trunc are shown.
Following electrophoresis, proteins were electrotransferred to either Hybond or ProBlott (Applied Biosystems) membrane and the membrane was incubated in renaturation buffer (50 mM Tris-HCl, pH 8.0, 150 mM NaCl, 10% glycerol, 1 mM DTT) at 4° C. for 5-6 hours.
For membranes probed with either VP16 or VP22trunc, blocking was performed overnight as described for Western blot analysis. Probing with epitope-tagged VP22 or VP16 was performed in 20 mM Tris-HCl, pH 8.0, 250 mM NaCl for 1.5 hours at ambient temperature. Excess probe was removed by washing 4 times (10 minutes per wash) in 20 mM Tris-HCl, pH8.0, 250 mM NaCl, followed by incubation with the appropriate antibody at a dilution of 1:1000 in TTBS/1% gelatin for 1.5-2 hours. Bound antibody was detected as described for Western blot analysis.
Based on the studies with soluble VP16 and VP22trunc presented above, only a restricted number of peptides were examined by Far Western analysis to identify those that may prevent binding of VP16. Thus, VP22trunc was added to a crude extract of bacterially expressed VP16 and the proteins were electrophoresed on a polyacrylamide gel followed by transfer to a membrane. […] Before the addition of VP16 the blot strips in lanes 3 to 8 were incubated with crude preparations of peptides C, D, E, or E' as well as mixtures of either 0 and E or C and F. When the blot strips were incubated with peptides C and F either singly or in combination, VP16 bindincg to VP22trunc was not prevented (FIG. 7A, lanes 3, 6 and 8).

“Also recorded” adds a separate entry of the source.

T2 sequence (P06492 whole entry): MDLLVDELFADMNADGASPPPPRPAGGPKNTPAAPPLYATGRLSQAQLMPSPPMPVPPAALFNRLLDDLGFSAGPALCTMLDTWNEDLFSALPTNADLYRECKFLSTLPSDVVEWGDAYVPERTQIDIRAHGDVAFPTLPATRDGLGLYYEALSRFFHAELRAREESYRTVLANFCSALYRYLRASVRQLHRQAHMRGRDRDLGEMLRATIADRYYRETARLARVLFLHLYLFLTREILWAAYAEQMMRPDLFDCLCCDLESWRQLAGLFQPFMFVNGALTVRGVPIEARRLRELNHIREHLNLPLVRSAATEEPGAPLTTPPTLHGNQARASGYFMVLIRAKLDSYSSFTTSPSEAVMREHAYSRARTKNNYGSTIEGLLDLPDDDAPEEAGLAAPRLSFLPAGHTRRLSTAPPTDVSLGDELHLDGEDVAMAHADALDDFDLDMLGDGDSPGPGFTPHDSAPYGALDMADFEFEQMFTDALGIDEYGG
T1 sequence (P06492 whole entry): as above

DVVQDVPDPERKTPRVTGG [Peptide J]: the “Direct binding of VP16 to plate-coated peptide (ELISA)” value (from here on “Direct binding of VP16”) with VP16 is listed as “binding did not occur”. Moreover, in data set [1], the Solubility result is listed as “soluble”.

Regarding GSHMARTAPTRSKTPAQGLA [Peptide A], the “Direct binding of VP16” value in the data set with VP16 was “binding did not occur”. Besides, the Solubility result in data set [1] is recorded as “soluble”.

With KTPAQGLARKLHFSTAPPNP [Peptide B], the “Inhibition of VP16 binding to VP22trunc in ELISA” value in data set [2] is listed as “neither peptides B, C nor F had any effect”. The “Direct binding of VP16” value with VP16 is listed as “binding did not occur”. Further, the Solubility entry in data set [1] is reported as “soluble”.

On to NLLQRANELVNPDVVQDVPD [Peptide I], for which the “Direct binding of VP16” value with VP16 is reported as “binding did not occur”. For the same sequence, the Solubility entry in data set [1] is recorded as “soluble”.

Take PRTDEDLNELLGITTIRVTV [Peptide G]: the “Direct binding of VP16” value with VP16 is reported as “binding did not occur”. In addition, the Solubility result in data set [1] is recorded as “partly; also recorded: partially insoluble”.

Take RMAAVQLWDMSRPRTDEDLN [Peptide F]: the “Inhibition of VP16 binding to VP22trunc in ELISA” value in data set [2] was “neither peptides B, C nor F had any effect”. In addition, the “Blocking of VP16 binding to immobilised VP22trunc (Far Western), crude peptides” value in data set [3] (strips pre-incubated with 1 mg of crude peptide, FIG. 7A) was “not prevented”. In addition, the “Blocking of VP16 binding to immobilised VP22trunc (Far Western), repeat with purified peptides D and E” value in data set [3] (strips pre-incubated with 1 mg peptide, D and E purified, FIG. 7B) is “had no effect”. Moreover, the “Direct binding of VP16” value with VP16 is “binding did not occur”. In addition, the Solubility result in data set [1] is listed as “soluble”.
